“And” between values parts separate entries of the source, which are not always exact repeats. Equal entries are not always repeated.

In experiment [1] the target is T1, His-tagged human TIGIT (human, UniProt Q495A1 22-141).
T1 construct: soluble analyte in SPR
T1 sequence: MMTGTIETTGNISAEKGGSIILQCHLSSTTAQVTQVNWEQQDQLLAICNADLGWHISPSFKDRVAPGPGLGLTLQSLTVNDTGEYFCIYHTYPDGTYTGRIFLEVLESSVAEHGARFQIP
In words: SPR, IgG captured on anti-human Fc, His-tagged human TIGIT injected. In general terms: In SPR one partner is held on a chip, and binding of the other changes the refractive index at the surface.

Experiment [2] deals with T2, human TIGIT ECD expressed on the CHO-S cell surface (human, UniProt Q495A1 22-141).
T2 construct: sections 3.13 and 4.1 say only stably expressing human TIGIT; also called CHO-S-hTIGIT; CHO-S-huTIGIT
T2 sequence: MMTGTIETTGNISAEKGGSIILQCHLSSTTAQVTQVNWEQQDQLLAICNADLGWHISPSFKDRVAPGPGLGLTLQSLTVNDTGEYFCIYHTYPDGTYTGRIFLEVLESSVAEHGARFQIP
Kind of experiment: flow cytometry on CHO-S cells expressing human TIGIT ECD. In general terms: In flow cytometry, cells or beads pass a laser one at a time.

Experiment [3] has as its target T2, human TIGIT ECD expressed on the CHO-S …. Kind of experiment: cell-based or functional assay.
For experiment [4], the target named is T1, His-tagged human TIGIT. In words: SPR Biacore, antibody captured on anti-human Fc, His-tagged TIGIT injected.
The target of experiment [5] is T3, His-tagged cynomolgus monkey TIGIT (cynomolgus monkey, UniProt A0A7N9I9V4 89-209).
T3 construct: also called Cyno TIGIT; cynomolgus monkey TIGIT (Novoprotein cat. No. CP02)
The description is as above.

The target in another experiment is T4, PD-L1 (UniProt Q9NZQ7 19-238, limits assumed).
T4 construct: also called unrelated protein PD-L1
Kind of experiment: ELISA EC50 assay. On the technique in general: An ELISA detects its analyte on a solid surface through an enzyme-linked reagent.

For another experiment, the target named is T5, CD226 (UniProt Q15762 19-247, limits assumed).
T5 construct: also called related family member protein CD226
T5 sequence (looked up): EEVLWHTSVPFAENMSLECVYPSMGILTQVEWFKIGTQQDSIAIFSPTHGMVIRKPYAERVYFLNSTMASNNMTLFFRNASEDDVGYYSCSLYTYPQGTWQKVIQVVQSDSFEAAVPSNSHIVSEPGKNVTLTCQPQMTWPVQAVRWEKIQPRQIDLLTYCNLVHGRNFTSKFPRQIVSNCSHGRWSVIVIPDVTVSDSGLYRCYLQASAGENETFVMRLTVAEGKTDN
Kind of experiment: ELISA EC50 assay.

The target in experiment [6] is T6, cynomolgus monkey TIGIT ECD expressed on the CHO-S cell surface (cynomolgus monkey).
T6 construct: extracellular domain; also called CHO-S-cynoTIGIT
Kind of experiment: flow cytometry on CHO-S cells expressing cyno TIGIT ECD.

Experiment [7] addresses T1, His-tagged human TIGIT. Kind of experiment: SPR, IgG captured on anti-human Fc, His-tagged human TIGIT injected. This is another data set of the same source.
Experiment [8] has as its target T7, human TIGIT on cells (primary T cells, transfected HEK293 cells, Jurkat reporter cells, NK cells) (human, UniProt Q495A1 22-244).
T7 sequence: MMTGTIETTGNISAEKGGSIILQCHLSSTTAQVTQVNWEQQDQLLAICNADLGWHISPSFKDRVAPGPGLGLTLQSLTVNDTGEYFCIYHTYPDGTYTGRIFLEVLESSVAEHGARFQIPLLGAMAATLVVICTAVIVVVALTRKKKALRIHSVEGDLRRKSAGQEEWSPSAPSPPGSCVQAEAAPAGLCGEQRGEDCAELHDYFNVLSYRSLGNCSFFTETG
In words: cell-based or functional assay.

The target in experiment [9] is T6, cynomolgus monkey TIGIT ECD expressed …. Kind of experiment: flow cytometry on CHO-S cells expressing cynomolgus monkey TIGIT ECD.
The target of experiment [10] is T2, human TIGIT ECD expressed on the CHO-S …. Kind of experiment: flow cytometry on CHO-S cells expressing human TIGIT ECD. The source holds these as a separate data set.
Experiment [11] has the same target. In words: flow cytometry blocking assay on CHO-S-hTIGIT cells, competitor muCD155-Fc; competitor muCD155-Fc; muIgG2c version.
Experiment [12] shares this target. In words: flow cytometry blocking assay on CHO-S-hTIGIT cells, competitor muCD112; competitor muCD112; muIgG2c version.

T4 sequence (Q9NZQ7 19-238 limits assumed): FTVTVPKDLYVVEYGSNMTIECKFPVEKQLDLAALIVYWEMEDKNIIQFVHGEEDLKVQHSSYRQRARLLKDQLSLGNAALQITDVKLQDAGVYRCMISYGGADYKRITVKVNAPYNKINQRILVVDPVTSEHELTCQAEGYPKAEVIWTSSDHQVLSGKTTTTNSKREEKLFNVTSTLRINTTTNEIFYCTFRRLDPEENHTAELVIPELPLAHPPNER
T3 sequence (A0A7N9I9V4 entry or part of it): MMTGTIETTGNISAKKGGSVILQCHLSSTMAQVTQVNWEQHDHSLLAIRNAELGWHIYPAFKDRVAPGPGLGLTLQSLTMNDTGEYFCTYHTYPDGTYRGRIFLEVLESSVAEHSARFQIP

B1: 3963H03 (antibody, human IgG1, kappa, V domains shown)
VH: EIQLVQSGSELKKPGASVKVSCKASGYTFTSYPMNWVRQAPGQGLEWMGWINTNTGNPTYAQGFTGRFVFSLDTSVSTAYLQISSLKAEDTAVYYCARVGGYSVDEYAFDVWGQGTMVTVSS
VL: AIRLTQSPSFLSASVGDRVTITCRASQGISSYLAWYQQKPGKAPKLLIYAASTLQSGVPSRFSGSGSGTEFTLTISSLQPEDFATYYCQQLNSYPTFGGGTKVEIKR
notes: fully human IgG1 kappa, B-cell cloning hit from OmniRat; also called 3963H03 VH; 3963H03 VK
As to B1, the koff stood at 0.00063 s⁻¹ with His-tagged human TIGIT [1], 0.000407 s⁻¹ in the experiment with His-tagged human TIGIT [4], 0.000213 s⁻¹ in experiment [5] and 0.00063 s⁻¹ with His-tagged human TIGIT [7]. Moreover, the EC50 worked out at 4.7 nM in experiment [2], 3.6 nM in experiment [6] and 6.3 µg/mL in experiment [8]. Besides, in experiment [3], the “ADCC EC50, nM (Donor 1005-4464)” value was determined as 0.028 nM. For the same molecule, in experiment [3], the “ADCC EC50, nM (Donor 1102-7215)” value was determined as 0.069 nM. For the same molecule, the “ADCC EC50, nM (Donor 1106-0557)” value in experiment [3] stood at 0.08 nM. For the same molecule, the Kd was 3.37 nM and 3.4 nM with His-tagged human TIGIT [4]; 1.45 nM and 1.5 nM in experiment [5]. In addition, the kon with His-tagged human TIGIT [4] was 121000 M⁻¹ s⁻¹; in experiment [5], 147000 M⁻¹ s⁻¹. The binding result in the experiment with PD-L1 and with CD226 was “no binding” each time.

B2: 3964A06 (antibody, human IgG1, V domains shown)
VH: EVQLVQSGSELKKPGASVKVSCKASGYTFTAYPMNWVRQAPGQGLEWMGWINTNTGNPTYAQGFTGRFVFSLDTSVSTAYLQISSLKAEDTAVYYCARVGGYSVYDYAFDIWGQGTMVTVSS
VL: DIQLTQSPSFLSASVGDRVTITCRASQGISSYLAWYQQKPGKAPKLLIYAASTLQSGVPSRFSGSGSGTEFTLTISSLQPEDFATYYCQQLNSYPTFGGGTKVEIK
On to B2, for which the dissociation constant (Kd) with His-tagged human TIGIT [4] was 2.62 nM and 2.6 nM; in [5], 1.11 nM and 1.1 nM. For the same molecule, the koff in the experiment with His-tagged human TIGIT [4] came to 0.000233 s⁻¹; in experiment [5], 0.000122 s⁻¹. Moreover, the values for the kon (in the experiment with His-tagged human TIGIT [4]; in [5]) were 89100 M⁻¹ s⁻¹ and 109000 M⁻¹ s⁻¹, respectively. The “EC50 (read off the curve)” value in experiment [9] is approximately 8 nM; in experiment [10], approximately 9 nM. In addition, the binding result with PD-L1 and in the experiment with CD226 was “no binding” throughout.

B3: 7728B03 (antibody, V domains shown)
VH: QMQLVQSGSELKKPGASVKVSCKASGYTFTSYPMNWVRQAPGQGLEWMGWINTNTGNPTYAQGFTGRFVFSLDTSVSTAYLQISSLKAEDTAVYYCARTGGYSVDEYSFDIWGQGTTVTVSS
VL: DIQLTQSPSFLSASVGDRVTITCRASQGISSYLAWYQQKPGKAPKLLIYAASTLQSGVPSRFSGSGSGTEFTLTISSLQPEDFATYYCHQTIFRPTFGGGTKVEIK
notes: constant regions correspond to those of H03-12
As for B3, in the experiment with His-tagged human TIGIT [4], the dissociation constant Kd was 0.0661 nM and 0.07 nM; the koff stood at 2.15e-05 s⁻¹; the kon came out at 325000 M⁻¹ s⁻¹. Also, in [5], the Kd is 0.0519 nM and 0.05 nM; the koff is 1.57e-05 s⁻¹; the kon came to 303000 M⁻¹ s⁻¹.

B4: 7729G05 (antibody, V domains shown)
VH: QVQLVQSGSELKKPGASVKVSCKASGYTFTSYPMNWVRQAPGQGLEWMGWINTNTGNPTYAQGFTGRFVFSLDTSVSTAYLQISSLKAEDTAVYYCARVGGFTVPEYAFDIWGQGTTVTVSS
VL: DIRLTQSPSFLSASVGDRVTITCRASQGISSYLAWYQQKPGKAPKLLIYAASTLQSGVPSRFSGSGSGTEFTLTISSLQPEDFATYYCGQVMRYPAFGGGTKVEIK
notes: as for B3
B4: in the experiment with His-tagged human TIGIT [4], the Kd is 0.0173 nM and < 0.05 nM; the koff was found to be 1.33e-05 s⁻¹; the kon turned out to be 767000 M⁻¹ s⁻¹. In experiment [5], the Kd is 0.0211 nM and < 0.05 nM; the koff amounted to 1.23e-05 s⁻¹; the kon is 581000 M⁻¹ s⁻¹.

B5: 3963H03-12-muIgG2c (antibody, V domains shown)
VH: QVQLVQSGSELKKPGASVKVSCKASGYTFTSYPMNWVRQAPGQGLEWMGWINTNTGNPTYAQGFTGRFVFSLDTSVSTAYLQISSLKAEDTAVYYCARVGGYSVDEYAFDVWGQGTLVTVSS
VL: DIQLTQSPSFLSASVGDRVTITCRASQGISSYLAWYQQKPGKAPKLLIYAASTLQSGVPSRFSGSGSGTEFTLTISSLQPEDFATYYCQQLSSYPTFGGGTKVEIK
notes: also called version of 3963H03-12 with a murine immunoglobulin
B5: the IC50 in [11] was 0.291 µg/mL; in [12], 1.19 µg/mL.

B6: 3966C11 (antibody, human IgG1, V domains shown)
VH: EIQLVQSGSELKKPGASVKVSCKASGYTFTSYPMNWVRQAPGQGLEWMGWINTNTGNPTNAQGFTGRFVFSLDTSVSTAYLQISSLKAEDTAVYYCARVGGYGGYDYAFDIWGQGTMVTVSS
VL: DIQLTQSPSFLSASVGDRVTITCRASQGISSYLAWYQQKPGKAPKLLIYAASTLQSGVPSRFSGSGSGTEFTLTISSLQPEDFATYYCQQLNSYPTFGGGTKLEIK
notes: constant regions correspond to those of H03-12 (human IgG1, kappa)
With B6, the Kd is 2.53 nM and 2.5 nM in the experiment with His-tagged human TIGIT [4]; 1.41 nM and 1.4 nM in experiment [5]. Also, the results for the koff (in the experiment with His-tagged human TIGIT [4]; in experiment [5]) were 0.000274 s⁻¹ and 0.000167 s⁻¹, respectively. The kon turned out to be 108000 M⁻¹ s⁻¹ with His-tagged human TIGIT [4] and 118000 M⁻¹ s⁻¹ in [5]. In addition, the “EC50 (read off the curve)” value in experiment [9] was approximately 7 nM; in [10], approximately 9 nM. Further, the binding result with PD-L1 and in the experiment with CD226 was “no binding” each time.

B7: 3965D08 (antibody, human IgG1, V domains shown)
VH: EVQLVQSGSELKKPGASVKVSCKASGYTFTSYPMNWVRQAPGQGLEWMGWINTNTGNPTYAQGFTGRFVFSLDTSVSTAYLQISSLKAEDTAVYYCARTGYSGSYYWFDPWGQGTLVTVSS
VL: DIRLTQSPSFLSASVGDRVTITCRASQGISSYLAWYQQKPGKAPKFLIYAASTLQSGVPSRFSGSGSGTEFTLTISSLQPEDFATYYCQQLNSYLTFGQGTRLEIK
notes: as for B6
For the molecule B7, the Kd was 10.3 nM in the experiment with His-tagged human TIGIT [4]; 8.66 nM and 8.7 nM in experiment [5]. Further, the results for the koff (with His-tagged human TIGIT [4]; in experiment [5]) were 0.00497 s⁻¹ and 0.00565 s⁻¹, respectively. In addition, the association rate constant (kon) in the experiment with His-tagged human TIGIT [4] turned out to be 482000 M⁻¹ s⁻¹; in [5], 653000 M⁻¹ s⁻¹. For the same molecule, the results for the concentration giving a half-maximal response (EC50 (read off the curve)) in experiment [9] and in experiment [10] were approximately 3 nM and approximately 5 nM, respectively. Further, the binding result with PD-L1 and in the experiment with CD226 was “no binding” in each case.

In general, koff refers to the first-order rate constant of dissociation. A word on the EC50: it is the concentration at which the effect is half-maximal. As a reminder, the Kd is a measure of binding affinity in units of concentration. The term kon denotes a measure of how fast the partners come together. What is called EC50 (read off the curve) is the concentration needed to bring the measured effect to its halfway point. The IC50 is the midpoint of a concentration-inhibition curve.
